Tested on: K4 kissing-loop RNA reporter
Assay: apparent KD of K4 kissing-loop reporter; higher = weaker reporter binding
Details: Eterna round: R107
Method: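 RNA-MaP round R107: designed RNA switches with theophylline, tryptophan, arginine or FMN aptamers are transcribed on-chip within common flanks. They are titrated with a labelled K4 kissing-loop RNA reporter in RNA-MaP buffer (100 mM Tris pH 7.5, 80 mM KCl, 4 mM MgCl2), without ligand or with the indicated ligand. Median apparent KD per design.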

[1] = input ligand: theophylline 20 uM
[2] = input ligand: tryptophan 2.4 mM
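Further: bound reporter read as fluorescence of individual clusters on recovered sequencing chips by microscopy, with normalized cluster intensities fitted with a binding model.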

Sequence	apparent KD of K4 kissing-loop reporter (input ligand: FMN 200 uM)	apparent KD of K4 kissing-loop reporter (input ligand: arginine 13.2 mM)	apparent KD of K4 kissing-loop reporter (input ligand: none)	apparent KD of K4 kissing-loop reporter [1]	apparent KD of K4 kissing-loop reporter [2]
UGGAGUUGACGAAAAGUCAACUCCUGAGAUACCAGUGACGAAAGUCACCCUUGGCAGCUCACUCCCAGUGAUGUUGGUUCAUAAG [#04 K4 Theophylline A Same State]	0.328 µM	0.37 µM	0.601 µM	0.496 µM	0.356 µM
AAACUUGCAGUGAUGUUGCAAGUAGGUGAUACCAGCAUCGAAAGAUGCCCUUGGCAGCACCAACACUGCAAGUAAGUAUCACCAA [(H1)-(H2)-(T1)-(T2)-(H)'-(T)'_Design1]	0.116 µM	0.138 µM	0.128 µM	0.161 µM	0.111 µM
AACUUGUUUGGAGGAUAUUCUUUAUUCGACAUAACCUUCUAUAAGGUGCAGUGAUGUUGCAAUAUAGGAGAAGGUCGAGUGAGAA [Exclusion FMN B Gf 16]	0.207 µM	0.169 µM	0.206 µM	0.219 µM	0.186 µM
AUUAAUUUCAGAGGAUAUCGUUAUUUUUUAUAUUUUAUUCAUUUAUGCAGUGAUGUUGCUAUUAUUCGAGAAGGCUGAUUUAUAA [JR_ExcFMNB_Sub004]	0.0864 µM	0.105 µM	0.0449 µM	0.1 µM	0.0509 µM
GCAUCCAUGGCAGGAUAUAGGUUCGUGGAGUGAUGUUCCAUAGCCCGAGUGAUGUUCGUUAUCCACCUAGAAGGGCCAUGGAUGC [whbob_Ex_FMNB__2th212]	0.27 µM	0.205 µM	0.246 µM	0.211 µM	0.21 µM
UAUAUAGUGACGGCCGCCACUAUAUUAAUGUUUUUGUUAGAGUGAUGUUUUGUUUAAUAUUUUUAUAGGACCGGGUUAUAUGUUA [zsqqxmullin]	0.569 µM	0.338 µM	0.641 µM	0.557 µM	0.58 µM
UGUCAUUGGUCUGAUACCAGUACCCUUGGCAGCCAAGGAGUGAUGUUCCAAGGAUACCAGUACCCUUGGCAGCAGACCGAUGACU [TheoBS 25 #DoubleAptamer #SwitchBubble]	0.884 µM	0.802 µM	0.758 µM	0.194 µM	0.964 µM
AAGUGAUGUUGUAGUGAUGUUGUGAUGUUGCAGGAUAUAUAGUGAUGUAGAAGGGUAAGUACUGAUGUUGUUUGUGAGUGAUGUU [zrrszrmullin]	0.0992 µM	0.0449 µM	0.0786 µM	0.0669 µM	0.0762 µM
UUUUAAAUGUCUGAUACCAGAGAAAAUAUAUGUAGUGAUGUUAUAUACAAAUUGAAUAAGCUCCCUUGGCAGCAGUAUUAAUUUU [AstrosExc-TheB#11]	0.493 µM	0.643 µM	0.713 µM	0.662 µM	0.493 µM
UUUCGUCUCUGAGGAUAUCAGACGAGAGUGAUGUUCUCCCAAAGCCCAGUGAUGUUGGAUGCUAUCUGAGAAGGCAGUGGGCGAA [Same State FMN B GF 12]	0.227 µM	0.584 µM	0.554 µM	0.634 µM	0.508 µM

— the supplement of paper PMC9170038
